Laboratory results from patent US10059956B2, “Glycosyltransferase gene and use thereof” (SUNTORY HOLDINGS LIMITED, priority 2012, dated 2018).

Tests used:
[1] = system: petunia (Surfinia Bouquet Red); assay: Flower petal pigment analysis of recombinant petunia introduced with NmGT8; format: in vivo
Excerpt: Binary vectors pSPB5424 and pSBP5428 for expressing NmGT8 were constructed and introduced into petunia (Surfinia Bouquet Red). […] Details of the introduced constructs are described below (see FIG. 17). pBINPLUS was used for the basic skeleton of pSPB5424, and three expression cassettes were contained therein (consisting of 1: E[…] promoter, full-length cDNA pansy F3'5'H (described in PCT/JP2004/011958, SEQ ID NO: 3) and HSP terminator (Plant Cell Physiology (2010), 51, 328-332); 2: E[…] promoter, full-length cDNA torenia flavone synthase and HSP terminator; and 3: E[…] promoter, full-length cDNA NmGT8 and HSP terminator). pBINPLUS was also used for the basic skeleton of pSPB5428, and two expression cassettes were contained therein (consisting of 1: E[…] promoter, full-length cDNA torenia flavone synthase and HSP terminator; and 2: E[…] promoter, full-length cDNA NmGT8 and HSP terminator). Pigments in the flower petals were analyzed for full-length cDNA torenia flavone synthase and full-length cDNA NmGT8 in those stains in which transcription products were confirmed. 0.2 g of completely open flower petals were freeze-dried for 24 hours or more and finely crushed with a spatula, followed by the addition of 4 ml of extract buffer (composition: 50% aqueous acetonitrile solution containing 0.1% TFA) and subjecting to ultrasonic treatment for 20 minutes. The flower petal extract was analyzed by high-performance liquid chromatography (Prominence (Shimadzu Corp.)). Analyses were carried out under the conditions and in the same manner as in Example 5. Non-recombinant petunia not introduced with genes and recombinant petunia introduced only with torenia flavone synthase that biosynthesizes flavone were analyzed in the same manner as controls (FIG. 18). Moreover, flower petal extract diluted 50-fold was also analyzed with a high-performance liquid chromatograph (Shimadzu Corp.). The Shimadzu LCMS-IF-TOF was used for the detector and flavones were detected at 433.1057 ([Api-Glc+H]) and 449.1084 ([Lut-Glc+H]). The Inertsil ODS-4 (250×4.6 mm, 5 Shimadzu Corp.) was used for the column. […]

[2] = Enzyme activity of crude enzyme liquid of E. coli expressing NmGT0 to NmGT9 on apigenin (HPLC); format: biochemical, Nemophila menziesii; settings: 80 μl crude enzyme liquid, UDP-glucose, 1 hour at 30° C., HPLC 330 nm
Procedure: 3 μg aliquots of each of pTOPO-NmGT0 to pTOPO-NmGT9 were treated with their corresponding restrictases followed by recovery of the resulting approximately 1.5 kb DNA fragments. 2 μg of vector pET15b was also treated with restrictase and ligated with the resulting DNA fragments to prepare E. coli expression constructs (pET-NmGT0 to pET-NmGT9).
pET-NmGT0 to pET-NmGT9 were introduced into E. coli strain […] using One Shot BL21 (DE3) (Invitrogen Corp.) in accordance with the protocol recommended by the manufacturer to acquire transformed E. coli. This E. coli was then cultured using the Overnight Express Autoinduction System 1 (Novagen Inc.) in accordance with the protocol recommended by the manufacturer. The transformed E. coli were cultured at 37° C. to an OD600 value of 0.5 in 2 ml of the prepared culture liquid (approx. 4 hours). This E. coli culture liquid was then used as a pre-culture liquid and added to 50 ml of culture liquid followed by final culturing overnight at 27° C. […]
A reaction liquid prepared by mixing 80 μl of crude enzyme liquid, 20 μl of 5 mM UDP-glucose, 20 μl of 1 M Tris HCl (pH 7.5) and 1 μl of 500 ng/μl apigenin on ice and bringing to a volume of 200 μl with water was held for 1 hour at 30° C. […] The Shimadzu PDA SPD-M10AVP was used for the detector and flavone was detected at 330 nm. […]

[3] = recombinant petunia flower petal extract, LC-MS

B1: NmGT8: nemophila glycosyltransferase (SEQ ID NO: 1/2) having activity that transfers a sugar to the hydroxyl group at the 4′-position of a flavone (protein, listed as Nemophila menziesii)
chain: MEKKTIILYPSPGIGHLVSMVELAKLILNREPSYSIIIFISSAPYSTGSSAPYISHVSATTSGISFHHLPVLVLPPNTFSSFEEIAYKIPQLNNPNLKLALQTISKESSDLKAFIIDFFCTAAVEVSSNLEIPTYFFFTSGSSAMCQFLYLPTLHETITQKDLQDPNTYVHIPGIPPIHSLDLPKVLSNRSTVLYKELINTANQMAKCSGILINAFETLEPKAVKALKEGLCTPGMPTPPVYCIGPLIASGDKGNVNDAHGHEILTWLNSQPSKSVVFLCFGSLGTFKEDQLKEIAIGLENSGHRFLWVMKSPPIDDKTKRFLPPPEPDFNVLLPEGFLERTKERGVIVKSWAPQLAILNHDAIGGFVTHCGWNSVLEAICGGVPMLAWPLYAEQRVNRVCMVEEMKVALPLEESVDGFVMASEIEKRVKELVDYESSEAIRDQVKIMSEKAKTAVAVSGSSHDALTKLLDGWK
flavone 4′-glucoside share of the biosynthesized flavones [1, 3]: 95.6% | flavone 7-glucoside share of the biosynthesized flavones [1, 3]: 4.4% | flavones detected in flower petals ([1]; recombinant petunia introduced with flavone synthase and NmGT8, HPLC): apigenin 4′-glucoside and luteolin 4′-glucoside were detected | HPLC peak other than substrate [2]: a peak other than that of the substrate was observed
